One experiment addresses T1, human TfR on cells (human, UniProt P02786 1-760).
T1 construct: also called human TfR/CHO; human TfFR/CHO cells
As to the kind of experiment: flow cytometry of monoclonal phage (scFv) on human TfR/CHO cells.

The next experiment addresses T2, monkey TfR on CHO cells (monkey).
T2 construct: also called monkey TfR/CHO cells
T2 chain: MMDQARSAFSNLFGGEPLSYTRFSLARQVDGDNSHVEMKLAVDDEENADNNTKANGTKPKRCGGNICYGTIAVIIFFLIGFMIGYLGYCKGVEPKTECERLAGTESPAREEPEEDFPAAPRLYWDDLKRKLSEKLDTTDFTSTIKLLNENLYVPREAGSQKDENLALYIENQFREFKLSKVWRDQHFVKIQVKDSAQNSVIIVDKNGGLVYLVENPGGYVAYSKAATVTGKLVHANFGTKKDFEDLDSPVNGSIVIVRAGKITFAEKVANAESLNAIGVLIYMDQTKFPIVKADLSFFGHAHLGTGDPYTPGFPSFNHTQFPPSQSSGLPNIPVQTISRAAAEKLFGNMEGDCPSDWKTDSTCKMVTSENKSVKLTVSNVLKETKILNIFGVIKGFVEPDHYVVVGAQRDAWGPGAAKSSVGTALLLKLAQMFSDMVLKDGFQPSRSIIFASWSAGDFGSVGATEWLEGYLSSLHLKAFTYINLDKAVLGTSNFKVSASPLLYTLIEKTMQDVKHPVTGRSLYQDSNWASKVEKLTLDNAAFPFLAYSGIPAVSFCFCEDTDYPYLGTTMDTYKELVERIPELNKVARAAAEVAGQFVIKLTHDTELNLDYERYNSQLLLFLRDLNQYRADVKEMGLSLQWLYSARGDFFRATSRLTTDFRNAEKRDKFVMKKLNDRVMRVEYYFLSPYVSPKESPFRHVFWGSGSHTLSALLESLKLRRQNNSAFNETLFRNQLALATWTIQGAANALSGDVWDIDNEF
As to the kind of experiment: flow cytometry of monoclonal phage (scFv) on monkey TfR/CHO cells. A general note: A flow cytometer gives signals particle by particle.

The target of a further experiment is T3, mouse TfR on CHO cells (mouse, UniProt Q62351 1-763).
T3 construct: also called mouse TfR/CHO
As to the kind of experiment: flow cytometry on mouse TfR/CHO cells.

The target in experiment [1] is T4, huTfR with mouse protease-like domain (human/mouse chimera).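 Also: Anti-TfR antibodies incubated 1 h at room temperature on plate-coated antigen, bound antibody detected via HRP-labelled anti-human IgG Fc with TMB substrate.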
T4 construct: His tag added; also called chimeric protein of human TfR extracellular domain with mouse protease-like domain
T4 chain: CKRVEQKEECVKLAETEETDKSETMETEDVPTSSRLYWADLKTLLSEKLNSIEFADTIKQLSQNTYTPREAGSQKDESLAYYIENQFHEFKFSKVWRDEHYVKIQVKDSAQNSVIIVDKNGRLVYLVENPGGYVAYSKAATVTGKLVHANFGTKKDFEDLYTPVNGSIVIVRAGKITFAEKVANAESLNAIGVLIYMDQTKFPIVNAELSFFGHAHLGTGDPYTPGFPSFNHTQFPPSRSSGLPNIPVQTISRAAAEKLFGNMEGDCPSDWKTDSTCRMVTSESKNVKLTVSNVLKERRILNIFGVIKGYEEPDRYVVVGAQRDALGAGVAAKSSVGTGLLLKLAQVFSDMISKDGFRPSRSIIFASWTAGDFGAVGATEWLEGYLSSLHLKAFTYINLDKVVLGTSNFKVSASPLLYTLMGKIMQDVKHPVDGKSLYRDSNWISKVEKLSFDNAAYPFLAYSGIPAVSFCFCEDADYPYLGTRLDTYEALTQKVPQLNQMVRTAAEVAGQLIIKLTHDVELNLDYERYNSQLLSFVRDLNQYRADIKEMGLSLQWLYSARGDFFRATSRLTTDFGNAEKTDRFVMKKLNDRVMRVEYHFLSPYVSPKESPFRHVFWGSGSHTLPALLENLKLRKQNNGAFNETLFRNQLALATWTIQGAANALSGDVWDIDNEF
As to the kind of experiment: ELISA on immobilized chimeric TfR; grade = binding relative to His-huTfR (++ 0.5 or more, + 0.2 to less than 0.5). (ELISA stands for enzyme-linked immunosorbent assay.)
Description: ELISA was carried out by the following method. To a 96-well immunoplate (NUNC, Inc.) on which an antigen protein was immobilized, 1% (w/v) BSA-PBS(−) pH 7.0 without KCl (hereinafter referred to as blocking solution, Nacalai Tesque, Inc.) was added to perform blocking at room temperature, and thereafter, the anti-TfR antibody diluted with the same solution was added thereto and a reaction was allowed to proceed at room temperature for 1 hour. Thereafter, washing was performed with 0.05% (w/v)-tPBS (1×) without KCl (pH 7.2) (hereinafter referred to as washing solution, Nacalai Tesque, Inc.), Anti-Human IgG (Fc) Goat IgG Fab″-HRP (IBL, Inc.) diluted with the blocking solution was added thereto, and a reaction was allowed to proceed at room temperature for 1 hour. Thereafter, washing was performed with the washing solution, and 1-Step (registered trademark) Ultra TMB-ELISA Substrate Solution (Thermo, Inc.) was added thereto, and a reaction was allowed to proceed at room temperature. The coloring reaction was stopped by adding a 5 N HCl solution, and an absorbance at a wavelength of 450 nm (reference wavelength: 570 nm) was measured using a plate reader (EPOCH 2: BioTek Instruments, Inc.).
Further, a value obtained by subtracting the absorbance at the reference wavelength of 570 nm from the absorbance at a wavelength of 450 nm was regarded as the binding activity to any of various types of antigen proteins, and a case where a value obtained by dividing the binding activity to any of various types of chimeric TfR by the binding activity to His-huTfR was 0.5 or more was denoted by ++, a case where the value was 0.2 or more and less than 0.5 was denoted by +, and a case where the value was less than 0.2 was denoted by −.

This is an account of results in patent US20220017635A1 (Kyowa Kirin, published 2022).

Residue numbers refer to the chain shown, from its start. In names and notes the source's numbering stands. Where only a bound is given, the exact number is not on record here.

Description for human TfR on cells: (§1) After the reaction was allowed to proceed under 4° C. for 30 minutes, each well was washed 3 times with PBS-T.
Description for monkey TfR on CHO cells: as §1
Description for mouse TfR on CHO cells: Subsequently, an epitope analysis for various types of TfR antibodies was carried out.

B1: PSM4072 (antibody, V domains shown)
VH: EVQLVETGGGLVQPGGSLRLSCTASGFTFESHAMYWVRQAPGKGLEWVSGISNGGSSTEYADSVRGRFTISRDNSKNTVYLQMNSLRAEDTAVYYCARPRSPYLFYDAAGVWGQGTLVTVSS
VL: not shown
notes: as IgG it has the constant region of human IgG4PE or IgG4PE R409K; also called anti-TfR antibody PSM4072
B1: the binding result with human TfR on cells and with monkey TfR on CHO cells was “binds” in each case.

B2: cyno163 (antibody, V domains shown)
VH: B1 VH with T7S, T23A, E30S, S31T, H32Y, Y35S, L117M
VL: not shown
notes: as IgG it has the constant region of human IgG4PE or IgG4PE R409K; also called anti-TfR antibody cyno163
In the case of B2, the binding result in the experiment with human TfR on cells and with monkey TfR on CHO cells was “binds” throughout.

B3: R327 (antibody, V domains shown)
VH: EVQLVETGGGLVQPGGSLRLSCAASGFSFDKYTMNWVRQAPGKGLEWVSVISNGGVSTDYADSVKGRFTVSRDNSKNTLYLQMNSLRAEDMATYYCARASQPWLYRTGADVWGQGTMVTVSS
VL: not shown
notes: also called anti-TfR antibody R327
On to B3, for which the binding result in the experiment with mouse TfR on CHO cells was “no binding”. In addition, the “ratio of ELISA binding activity (A450-A570) to chimeric TfR over that to His-huTfR” value (shortened to “ratio of ELISA binding activity”) in experiment [1] was no less than 0.5 ratio.

B4: TfR1071 (antibody, V domains shown)
VH: B3 VH with E1Y, T7S, M117L
VL: not shown
notes: also called anti-TfR antibody TfR1071
As to B4, the binding result with mouse TfR on CHO cells is reported as “no binding”. In experiment [1], the “ratio of ELISA binding activity” value was no less than 0.5 ratio.

B5: TfR1007 (antibody, V domains shown)
VH: EVQLVESGGGLVQPGGSLSLSCAASGFSFKGYSMSWVRQAPGKGLEWVSSLSNGGGSSYYADSVKGRFTISRDNSKNTLYLQMNSLRAEDTAVYYCAKTLGAYYIKSAMDVWGQGTTVTVSS
VL: not shown
notes: also called anti-TfR antibody TfR1007
B5: the “ratio of ELISA binding activity” value in experiment [1] was no less than 0.5 ratio.
